From patent publication US20250163146A1, “SINGLE-DOMAIN ANTIBODIES (NANOBODIES) TARGETING THE NOTCH LIGAND DLL4 AND METHODS OF THEIR USE” (H. LEE MOFFITT CANCER CENTER AND RESEARCH INSTITUTE, INC., priority 2022, published 2025)

Assays:
[1] = target: T1, mouse DLL4 (Mus musculus, UniProt Q9JI71); experiment: Yeast-displayed nanobody clones stained with biotinylated mDLL4 and SA-647, flow cytometry; assay type: binding; details: yeast display, biotinylated mDLL4 (N-EGF3), SA-647, FIG. 1
T1 construct: The mDLL4 protein was a truncation that contained the C2, DSL, and EGF1-3 domains (DLL4 (N-EGF3)); biotin (protein is biotinylated)
Procedure: 162. To isolate binding molecules that interrupted the interaction of DLL4 and Notch1, we performed several rounds of selection using decreasing concentrations of biotinylated murine DLL4 protein. The mDLL4 protein was a truncation that contained the C2, DSL, and EGF1-3 domains (DLL4 (N-EGF3)). To perform a selection, the library was stained with biotinylated mDLL4, washed, incubated with streptavidin-647, washed, and then binders isolated selected using either (a) magnetic beads coated with an anti-647 antibody or (b) FACS. The mDLL4-binding yeast were then plated so that individual colonies could be picked and cultured to isolate individual clones. The clones were then each stained with mDLL4 and SA-647 and analyzed by flow cytometry to confirm that they bound to mDLL4. (FIG. 1).

[2] = target: T2, DLL4 (Homo sapiens, UniProt Q9NR61); experiment: Cross-reactivity: yeast expressing each nanobody stained with biotinylated human DLL4 (N-EGF3), flow cytometry; assay type: binding; set-up: stained with biotinylated human DLL4 (N-EGF3); biotin (protein is biotinylated); details: yeast display, SA-647, FIG. 2
Procedure: 163. The eight anti-DLL4 nanobody clones were then tested for cross-reactivity between human and mouse DLL4. Yeast cells expressing each nanobody were stained with biotinylated human DLL4 (N-EGF3), washed, stained with SA-647, and then analyzed by flow cytometry.
Target sequence in this assay (Q9NR61 27-322 limits assumed): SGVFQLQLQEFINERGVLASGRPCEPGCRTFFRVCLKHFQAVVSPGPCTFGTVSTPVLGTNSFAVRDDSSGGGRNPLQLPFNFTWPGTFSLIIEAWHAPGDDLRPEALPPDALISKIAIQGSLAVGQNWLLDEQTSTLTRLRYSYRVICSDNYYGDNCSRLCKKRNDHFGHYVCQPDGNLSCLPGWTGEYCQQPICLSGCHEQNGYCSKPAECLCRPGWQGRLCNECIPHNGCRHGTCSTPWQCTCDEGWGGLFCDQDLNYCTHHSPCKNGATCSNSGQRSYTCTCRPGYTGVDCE

[3] = target: T2, DLL4; experiment: Yeast expressing nanobody stained with biotinylated hDLL4 (N-3) alone, flow cytometry; assay type: binding; set-up: stained with biotinylated human DLL4 (N-EGF3); details: yeast display, FIG. 3
Procedure: (§1) 164. Next, we tested four cross-reactive nanobodies (A7, C4, C5, and B1) for their ability to inhibit binding of hNotch1 to hDLL4 (FIG. 3). Yeast expressing each nanobody were stained with either biotinylated hDLL4 (N-3) or unlabled hDLL4+biotinylated hNotch1 EGF domains 6-13 (hNotch1 (6-13)). The yeast were then washed, incubated with SA-647, and analyzed by flow cytometry.
Target sequence in this assay (Q9NR61 27-322 limits assumed): as above

[4] = tested on: DLL4-mediated Notch activation (hNotch1); experiment: Plate-bound ligand stimulation assay, Notch1 H2B-citrine reporter cells on recombinant human DLL4; assay type: cell-based; details: nanobody-Fc fusions, plates coated with human DLL4 (C2, DSL, EGF1-5), FIG. 6
Description: 167. To determine if the C4 and C5 nanobodies inhibit DLL4-mediated Notch activation. Notch1 reporter H2B-citrine reporter cells were transferred to 96-well plates coated with recombinant human DLL4 protein containing the C2, DSL, and EGF1-5 domains in the presence or absence of nanobody-Fc fusions.

[5] = target: hDLL4: hNotch1 complexes (Homo sapiens, UniProt Q9NR61); experiment: Yeast expressing nanobody stained with unlabeled hDLL4 + biotinylated hNotch1 (6-13), flow cytometry (inhibition of hNotch1 binding to hDLL4); details: FIG. 3
Procedure: as §1

[6] = target: T2, DLL4; experiment: SPR monomer affinity; assay type: binding; details: preliminary, FIG. 8
Description: (§2) 168. We the investigated the C4 nanobody following affinity maturation and found a second nanobody Nb.d4C4v2. To identify the similarity between the parent C4 and the variant C4v2 clone the sequences of each nanobody was compared (FIG. 7). We also investigated the affinity of the C4 nanobody. […] Moreover, inhibition in plate-bound and co-culture formats in the presence of CHO-hNotch1 reporter cell line and with or without cells expressing DLL4 indicate a low-nanomolar IC50 similar to DAPT, indicating affinity-matured Nb.d4C4v2 is a clinical candidate (FIGS. 9 and 10).
Target sequence in this assay (Q9NR61 27-685, species assumed): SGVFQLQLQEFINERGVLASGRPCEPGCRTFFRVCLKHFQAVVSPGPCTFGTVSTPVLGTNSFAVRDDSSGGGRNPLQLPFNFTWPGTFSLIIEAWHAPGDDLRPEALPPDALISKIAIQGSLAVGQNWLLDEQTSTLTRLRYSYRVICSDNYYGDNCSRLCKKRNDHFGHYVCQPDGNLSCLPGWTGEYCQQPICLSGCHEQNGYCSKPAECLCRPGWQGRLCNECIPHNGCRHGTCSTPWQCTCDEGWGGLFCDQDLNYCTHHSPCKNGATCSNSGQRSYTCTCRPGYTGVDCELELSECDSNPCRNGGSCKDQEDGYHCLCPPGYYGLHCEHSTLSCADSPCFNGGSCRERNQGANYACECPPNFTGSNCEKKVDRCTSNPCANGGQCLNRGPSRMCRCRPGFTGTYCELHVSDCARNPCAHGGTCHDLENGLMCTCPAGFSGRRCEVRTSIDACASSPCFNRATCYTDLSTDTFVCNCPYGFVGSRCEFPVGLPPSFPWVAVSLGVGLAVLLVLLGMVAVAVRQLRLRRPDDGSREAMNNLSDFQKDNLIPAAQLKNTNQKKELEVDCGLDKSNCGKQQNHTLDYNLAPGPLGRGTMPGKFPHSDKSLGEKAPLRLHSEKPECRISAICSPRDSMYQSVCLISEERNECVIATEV

[7] = tested on: hNotch1; experiment: Inhibition in plate-bound and co-culture formats with CHO-hNotch1 reporter cell line; assay type: cell-based, human; details: preliminary
Description: as §2

T1 sequence (Q9JI71 27-323 limits assumed): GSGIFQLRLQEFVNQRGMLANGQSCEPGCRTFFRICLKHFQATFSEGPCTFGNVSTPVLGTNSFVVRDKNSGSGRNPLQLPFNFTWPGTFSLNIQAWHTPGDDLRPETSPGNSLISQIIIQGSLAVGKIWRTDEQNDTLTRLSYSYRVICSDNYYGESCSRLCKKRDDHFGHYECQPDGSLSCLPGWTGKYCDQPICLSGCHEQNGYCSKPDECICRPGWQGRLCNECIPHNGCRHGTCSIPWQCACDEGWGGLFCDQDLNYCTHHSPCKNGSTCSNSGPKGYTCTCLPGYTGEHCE
Sequence of hDLL4: hNotch1 complexes (Q9NR61 27-322 limits assumed, one chain of several): as the sequence (Q9NR61 27-322 limits assumed) above

Row | Molecule | binding to mouse DLL4 [1] | cross-reactivity with human DLL4 [2] | also measured
1 | clone B4: anti-DLL4 nanobody isolated from the yeast library, SEQ ID NO: 16 (protein) VHH: QVQLQESGGGLVQAGGSLRLSCAASGNISVWIPMGWYRQAPGKEREFVASIGEGSTTYYADSVKGRFTISRDNAKNTVYLQMNSLKPEDTAVYYCAVPYYGHSDYDYWGQGTQVTVSSGSYPYDVPDYAQTSSPSTEAS | bound mouse DLL4 | – | –
2 | clone A7: anti-DLL4 nanobody isolated from the yeast library, SEQ ID NO: 24 (protein) VHH: QVQLQESGGGLVQAGGSLRLSCAASGNIFYTYSMGWYRQAPGKEREFVAAISAGTITYYADSVKGRFTISRDNAKNTVYLQMNSLKPEDTAVYYCAVFAPRDVIHYYWGQGTQVTVSSGSYPYDVPDYAQTSSPSTEAS | bound mouse DLL4 | cross reacted with human DLL4 | –
3 | clone A8: anti-DLL4 nanobody isolated from the yeast library, SEQ ID NO: 4 (protein) VHH: QVQLQESGGGLVQAGGSLRLSCAASGTIFEERVMGWYRQAPGKEREFVAGIASGAITYYADSVKGRFTISRDNAKNTVYLQMNSLKPEDTAVYYCAAQGYSFKTKPDYSAYVLVYWGQGTQVTVSSGSYPYDVPDYAQTSSPSTEAS | bound mouse DLL4 | – | –
4 | clone B1: anti-DLL4 nanobody isolated from the yeast library, SEQ ID NO: 12 (protein) VHH: QVQLQESGGGLVQAGGSLRLSCAASGTIFYSSDMGWYRQAPGKEREFVAGINRGSTTYYADSVKGRFTISRDNAKNTVYLQMNSLKPEDTAVYYCAVVSDVLTRLFYWGQGTQVTVSSGSYPYDVPDYAQTSSPSTEAS | bound mouse DLL4 | cross reacted with human DLL4 | –
5 | clone A9: anti-DLL4 nanobody isolated from the yeast library, SEQ ID NO: 8 (protein) VHH: QVQLQESGGGLVQAGGSLRLSCAASGTISQDSGMGWYRQAPGKEREFVAGITAGSITYYADSVKGRFTISRDNAKNTVYLQMNSLKPEDTAVYYCAASYVSVQAHTYWGQGTQVTVSSGSYPYDVPDYAQTSSPSTEAS | bound mouse DLL4 | – | –
6 | Nb.d4C4v2: affinity-matured variant of the C4 nanobody, SEQ ID NO: 39 (SEQ ID NO: 41 with flanking sequence) (protein) VHH: QVQLQESGGGLVQAGGSLRLSCAASGSISGDVEMGWYRQAPGKEREFVAGINDGGNIYYADNVEGRFTISRDNAKNTVYLQMNSLKPEDTAVYYCAVSTTYPSYNESQYADWIAYWGQGAQVTVSS | – | – | IC50 ([7]; CHO-hNotch1 reporter cell line and cells expressing DLL4, similar to DAPT, FIG. 10): low-nanomolar; IC50 ([7]; CHO-hNotch1 reporter cell line, without cells expressing DLL4, similar to DAPT, FIG. 9): low-nanomolar

Further lines, with some results ahead:

Row | binding to mouse DLL4 [1] | cross-reactivity with human DLL4 [2] | Molecule | also measured
7 | bound mouse DLL4 | – | clone C2: anti-DLL4 nanobody isolated from the yeast library, SEQ ID NO: 28 (protein) VHH: QVQLQESGGGLVQAGGSLRLSCAASGSISVVYGMGWYRQAPGKEREFVAGISYGGSTYYADSVKGRFTISRDNAKNTVYLQMNSLKPEDTAVYYCAVDASYWDTLVYWGQGTQVTVSSGSYPYDVPDYAQTSSPSTEAS | –
8 | bound mouse DLL4 | cross reacted with human DLL4 | clone C5: anti-DLL4 nanobody isolated from the yeast library, SEQ ID NO: 20 (protein) VHH: QVQLQESGGGLVQAGGSLRLSCAASGNISTGTAMGWYRQAPGKEREFVAGIAYGATTYYADSVKGRFTISRDNAKNTVYLQMNSLKPEDTAVYYCAVEVSQSTPGGRYSVAYLIYWGQGTQVTVSSGSYPYDVPDYAQTSSPSTEAS | binding to hDLL4 alone [3]: bound robustly; reduction in reporter activity (hNotch1 activation) [4]: dose-dependent reduction in reporter activity; binding to hDLL4: hNotch1 complexes [5]: not to hDLL4: hNotch1 complexes
9 | – | cross reacted with human DLL4 | clone C4: anti-DLL4 nanobody isolated from the yeast library, SEQ ID NO: 32; nanobody d4C4 SEQ ID NO: 36 (protein) VHH: QVQLQESGGGLVQAGGSLRLSCAASGSISGDVEMGWYRQAPGKEREFVAGINDGGNTYYADSVKGRFTISRDNAKNTVYLQMNSLKPEDTAVYYCAVSTTYPSYNESQYADWLAYWGQGTQVTVSSGSYPYDVPDYAQTSSPSTEAS | binding to hDLL4 alone [3]: bound robustly; reduction in reporter activity (hNotch1 activation) [4]: dose-dependent reduction in reporter activity; monomer affinity [6]: low nanomolar to picomolar range; binding to hDLL4: hNotch1 complexes [5]: not to hDLL4: hNotch1 complexes
